These results are taken from PMC7347289.

The target in this experiment is Sambucus nigra agglutinin (Sambucus nigra). The experiment can be described thus: localized surface plasmon resonance.

pKd: −log10 of the molar value.

Sequence of Sambucus nigra agglutinin (Sambucus nigra) (Q41358 29-289 limits assumed, chain 1 of 2): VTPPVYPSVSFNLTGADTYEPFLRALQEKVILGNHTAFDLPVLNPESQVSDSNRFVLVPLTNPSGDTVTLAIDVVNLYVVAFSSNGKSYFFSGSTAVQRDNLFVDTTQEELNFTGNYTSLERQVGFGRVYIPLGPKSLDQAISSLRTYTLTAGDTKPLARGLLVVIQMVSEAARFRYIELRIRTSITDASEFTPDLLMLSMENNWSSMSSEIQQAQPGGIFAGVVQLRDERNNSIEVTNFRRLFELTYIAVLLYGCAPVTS
Sequence of Sambucus nigra agglutinin (Sambucus nigra) (Q41358 309-570 limits assumed, chain 2 of 2): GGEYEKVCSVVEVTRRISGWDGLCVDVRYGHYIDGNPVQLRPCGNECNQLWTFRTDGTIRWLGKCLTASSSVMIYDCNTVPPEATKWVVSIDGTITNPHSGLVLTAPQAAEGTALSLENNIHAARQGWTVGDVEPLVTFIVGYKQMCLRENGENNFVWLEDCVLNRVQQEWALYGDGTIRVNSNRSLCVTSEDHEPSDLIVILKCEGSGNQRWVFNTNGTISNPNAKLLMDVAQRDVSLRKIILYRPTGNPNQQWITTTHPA

Take “α-1 acid glycoprotein (from UniProt P02763 19-201) (natural protein)”: the pKd is 4.51.
